Source: US20130230533A1 (Regeneron, published 2013)
Positions count from the first letter of the chain named. In names and notes the source's numbering stands.

B1: H4H1772P (antibody, human IgG4, V domains shown)
VH: EVQLVESGGGLVQPGGSLRLSCAASGFTFSSYWMSWVRQAPGKGLEWVANIMRDGSEKYYVDSVKGRFTISRDNAKNSLYLQMNSLRGEDTAVYYCARERGFYTNYGNWFDPWGQGTLVTVSS
VL: DIVMTQSPLSLTVTPGESASISCRSSQSLLHSYGYNSLDWYLQKPGQSPQFLIYLVSNRASGVPDRFSGSGSGTDFTLKISRVEAEDVGVYYCMQVLQTPYTFGQGTKLEIK
notes: Human IgG4 Fc (H4H)
B2: H4H1775P (antibody, human IgG4, V domains shown)
VH: QVQLVESGGGVVQPGRSLRLSCAASGFTFSNYGMHWVRQAPGKGLEWVAVIWYDESGKHYADSVKGRFTISRDNSQNTLYLQMTSLRAEDTAVYYCARDRWTYSHYFEYWGQGTLVTVSS
VL: DIQMTQSPSSVSASVGDRVTITCRASQDISSWVAWYQQKPGKAPKLLIYAASSLQSGVPSRFSGSGSGTDFTLTISSLQPEDFATYYCQQANSFPRTFGQGTKVEIK
notes: Human IgG4 Fc (H4H)
B3: H4H1778P (antibody, human IgG4, V domains shown)
VH: B2 VH with G57S, H59Y, A61T
VL: B2 VL with D28G
notes: Human IgG4 Fc (H4H)
B4: H4H1781P (antibody, human IgG4, V domains shown)
VH: B2 VH with E55D, G57N, H59N, Q76K, T84N, A88V, Y106F
VL: B2 VL with D28G, V33L, K45N, S63G, T72S, S77G
notes: Human IgG4 Fc (H4H)
B5: H4H1779P (antibody, human IgG4, V domains shown)
VH: B2 VH with G57S
VL: B2 VL
notes: Human IgG4 Fc (H4H)
B6: H2M1709N (antibody, mouse IgG2, V domains shown)
VH: QVQLVQSGAEVKKPGASVKVSCKVSGYTLTELSIHWVRQAPGKGLEWMGGFDPEDGETIYAQKFQGRVNMTEDTSTDTAYMELSSLRSDDTTVYFCASLLPYFDYWGQGTLVTVSS
VL: EIVLTQSPGTLSLSPGERATLSCRASQSVSSSYLAWYQQKPGQAPRLLIYGASSRATGIPDRFSGSGSGTDFTLSISRLEPEDFAVYFCQQYGSSMYTFGQGTKLEIK
notes: Human variable domains, mouse IgG2 Fc (H2M)
B7: H4H1789Pa (antibody, V domains shown)
VH: EVQLLESGGGLVHPGGSLRLSCAASGFTFGGYAMSWVRQAPGKGLEWVSLISGSGGSTYYADSVKGRFTIFRDNSKNTLYLQMISLRAEDSAVYYCAKYSNYDYFDPWGQGTLVTVSS
VL: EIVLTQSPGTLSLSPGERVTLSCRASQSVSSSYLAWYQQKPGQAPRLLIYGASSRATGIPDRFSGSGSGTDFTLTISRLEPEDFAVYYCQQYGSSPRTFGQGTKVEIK
notes: Human IgG4 Fc (H4H)

Tests used:
[1] = biological target: T1, monomeric monkey CD48 expressed with a tag consisting of 2 myc and one 6-His epitopes (monkey); test: competition ELISA; blocks mfCD48-mmH binding to coated h2B4-mFc
T1 construct: also called mfCD48-mmH; Monomeric monkey CD48-mmH
T1 chain: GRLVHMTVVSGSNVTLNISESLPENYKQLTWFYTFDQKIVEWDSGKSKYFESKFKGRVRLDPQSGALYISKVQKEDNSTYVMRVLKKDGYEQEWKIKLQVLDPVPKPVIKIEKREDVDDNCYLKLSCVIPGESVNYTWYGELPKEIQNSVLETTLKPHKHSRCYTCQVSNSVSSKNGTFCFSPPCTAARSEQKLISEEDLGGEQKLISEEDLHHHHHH
Protocol: (§1) The ability of human anti-CD48 monoclonal antibodies to block human CD48 and monkey CD48 binding to the human cognate ligand, human 2B4, was measured using a competition sandwich ELISA (Table 8). Constant amounts of biotinylated dimeric human CD48 protein expressed as a fusion with mouse IgG2a Fc (“bio-hCD48-mFc” [SEQ ID NO: 387]) or monomeric monkey CD48 expressed with a tag consisting of 2 myc and one 6-His epitopes (“mfCD48-mmH” [SEQ ID NO: 386]) were separately titrated with varying amounts of antibodies. These antibody-protein complexes were incubated (1 hr, 25° C.) before being transferred to microtiter plates coated with a dimeric construct expressing the human 2B4 receptor fused to a either human IgG1 (h2B4-hFc [R&D Systems, Inc., Minneapolis, Minn., Cat. No. 1039-2B]) or mouse IgG2a Fc (h2B4-mFc [SEQ ID NO: 389). After a 1 hr at 25° C. the wells were washed and bound human CD48 was detected with streptavidin conjugated with horse-radish peroxidase (HRP), and monkey CD48 was detected with an HRP conjugated anti-myc polyclonal antibody. The ELISA was developed with a TMB solution to produce a colorimetric reaction and quenched with sulfuric acid before reading absorbance at 450 nm on a Victor X5 plate reader. Sigmoidal dose response curves were fit to the data using Prism™ software. […] (Tables 8 and 9, NB=no binding observed)

[2] = biological target: T2, biotinylated dimeric human CD48 protein expressed as a fusion with mouse IgG2a Fc (human, biotinylated); test: competition ELISA; blocks bio-hCD48-mFc binding to coated h2B4-mFc
T2 construct: also called bio-hCD48-mFc; Dimeric human CD48-mFc
T2 chain: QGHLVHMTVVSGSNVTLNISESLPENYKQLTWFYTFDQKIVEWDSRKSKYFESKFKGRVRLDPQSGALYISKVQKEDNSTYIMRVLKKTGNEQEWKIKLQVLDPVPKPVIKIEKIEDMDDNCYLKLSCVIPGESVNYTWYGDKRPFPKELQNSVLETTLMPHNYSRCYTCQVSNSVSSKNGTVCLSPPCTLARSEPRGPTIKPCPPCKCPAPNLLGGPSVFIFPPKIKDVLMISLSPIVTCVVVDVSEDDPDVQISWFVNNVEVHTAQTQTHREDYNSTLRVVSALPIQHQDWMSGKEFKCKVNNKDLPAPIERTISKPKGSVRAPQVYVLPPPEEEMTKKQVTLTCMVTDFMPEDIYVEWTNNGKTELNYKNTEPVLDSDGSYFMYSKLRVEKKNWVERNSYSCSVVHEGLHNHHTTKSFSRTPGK
Protocol: as §1

[3] = biological target: T3, human CD48 (on primary human peripheral blood mononuclear cells) (human, UniProt P09326 27-220); test: cell-based or functional assay
T3 sequence: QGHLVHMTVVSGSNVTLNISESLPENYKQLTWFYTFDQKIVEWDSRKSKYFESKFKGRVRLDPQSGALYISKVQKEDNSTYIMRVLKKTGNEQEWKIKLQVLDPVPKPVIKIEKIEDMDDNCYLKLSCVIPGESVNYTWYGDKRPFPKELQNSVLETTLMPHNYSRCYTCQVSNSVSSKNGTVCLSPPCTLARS

[4] = biological target: T3, human CD48 (on primary human peripheral …); test: cell-based or functional assay; remark: listed apart in the source
[5] = biological target: T3, human CD48 (on primary human peripheral …); test: cell-based or functional assay; remark: listed apart in the source
[6] = biological target: T1, monomeric monkey CD48 expressed with a …; test: competition ELISA; blocks mfCD48-mmH binding to coated h2B4-hFc
Protocol: as §1

[7] = biological target: T3, human CD48 (on primary human peripheral …); test: cell-based or functional assay; remark: listed apart in the source
[8] = biological target: T2, biotinylated dimeric human CD48 protein …; test: competition ELISA; blocks bio-hCD48-mFc binding to coated h2B4-hFc
Protocol: as §1

[9] = biological target: T3, human CD48 (on primary human peripheral …); test: cell-based or functional assay; remark: listed apart in the source

| Binder | IC50 [1] | IC50 [2] | Inhibition of IFN-gamma Release IC50; Donor 10 [3] | Inhibition of IFN-gamma Release IC50; Donor 6 [4] | Inhibition of IFN-gamma Release IC50; Donor 7 [4] | % Blockade of IFNγ release, MLR; D2 [5] | % Blockade of IFNγ release, MLR; D3 [5] | % Blockade of IFNγ release, MLR; D4 [5] | % Blockade of IFNγ release, MLR; D5 [5] | % Blockade of IFNγ release, MLR; D6 [5] | % Blockade of IFNγ release, MLR; D7 [5] | % Blockade of IFNγ release, MLR; D8 [5] | % Blockade of IFNγ release, MLR; D9 [5] | also measured |
| --- | --- | --- | --- | --- | --- | --- | --- | --- | --- | --- | --- | --- | --- | --- |
| B1 | 4.4 pM | 14 pM | 1.4e-12 Molar | 2e-12 Molar | 2.2e-11 Molar | 65% | 62% | 39% | 62% | 63% | 58% | 25% | 59% | Inhibition of IFN-gamma Release IC50; Donor 11 [3]: 8.6e-11 Molar |
| B2 | 43 pM | 44 pM | 2e-11 Molar | – | 5.1e-12 Molar | 77% | 87% | 37% | 70% | 72% | 69% | 22% | 60% | Inhibition of IFN-gamma Release IC50; Donor 8 [3]: 3.1e-12 Molar; Inhibition of IFN-gamma Release IC50; Donor 9 [3]: 2.3e-12 Molar; % Blockade of IFNγ release, MLR; D1 [5]: 42% |
| B3 | 8.4 pM | 56 pM | – | 9.8e-12 Molar | – | – | – | – | – | – | – | – | – | – |
| B4 | 8.1 pM | 18 pM | – | 3.6e-11 Molar | 1.5e-11 Molar | – | – | – | – | – | – | – | – | – |
| B5 | 5.7 pM | 16 pM | – | 1.7e-12 Molar | 1.5e-11 Molar | – | – | – | – | – | – | – | – | – |
| B6 | – | – | – | – | – | – | – | – | – | – | – | – | – | IC50 [6]: 120 pM; Inhibition of IFN-gamma Release IC50; Donor 1 [7]: 4.8e-11 Molar; Inhibition of IFN-gamma Release IC50; Donor 2 [7]: 5.7e-11 Molar; Inhibition of IFN-gamma Release IC50; Donor 3 [7]: 1.2e-10 Molar; Inhibition of IFN-gamma Release IC50; Donor 4 [7]: 1.1e-10 Molar; Inhibition of IFN-gamma Release IC50; Donor 5 [7]: 3.2e-11 Molar; IC50 [8]: 45 pM |
| B7 | 38 pM | 53 pM | 1.3e-11 Molar | 1.2e-11 Molar | 1.8e-11 Molar | 66% | 88% | 36% | 89% | 82% | 75% | 65% | 66% | IC50 of IFNγ release, MLR; D1 [9]: ~1.4 pM; IC50 of IFNγ release, MLR; D2 [9]: ~9.3 pM; IC50 of IFNγ release, MLR; D4 [9]: 230 pM; IC50 of IFNγ release, MLR; D5 [9]: ~90 pM; IC50 of IFNγ release, MLR; D6 [9]: 2.8 pM; IC50 of IFNγ release, MLR; D8 [9]: 29 pM; IC50 of IFNγ release, MLR; D9 [9]: 180 pM; IC50 of IFNγ release, MLR; D10 [9]: ~50 pM; IC50 of IFNγ release, MLR; D11 [9]: ~92 pM; IC50 of IFNγ release, MLR; D12 [9]: ~300 pM; IC50 of IFNγ release, MLR; D13 [9]: ~96 pM; IC50 of IFNγ release, MLR; D14 [9]: 200 pM; IC50 of IFNγ release, MLR; D15 [9]: ~2.7 pM; IC50 of IFNγ release, MLR; D16 [9]: ~12 pM; Inhibition of IFN-gamma Release IC50; Donor 8 [3]: 3.7e-11 Molar; Inhibition of IFN-gamma Release IC50; Donor 9 [3]: 1.6e-11 Molar; Inhibition of IFN-gamma Release IC50; Donor 11 [3]: 1.3e-11 Molar; % Blockade of IFNγ release, MLR; D1 [5]: 65% |
